Patent publication US20260274993A1

Legend:
[1] = molecular target: VH4-34 endogenously expressed by cell line GA-10; experiment: flow cytometry, EC50 of % parent (APC), GA-10 cells endogenously expressing VH4-34; curve in FIG. 5A rises to about 66 % at Log M about -7.2 without a plateau
[2] = molecular target: VH4-34 endogenously expressed by cell line HBL-1; experiment: flow cytometry, EC50 of % parent (APC), HBL-1 cells endogenously expressing VH4-34; curve in FIG. 5A rises to about 57 % at Log M about -7.2 without a plateau

B1: D011-1E11-5T2.IgG2a (antibody, V domains shown)
VH: QVQLVQSGAEVKKPGASMKVSCKASGYSFTGSTMNWVRQAPGQGLEWMGWINPYNGGTNYAQKFQGRVTMTRDTSISTAYMELSRLRSDDTAVYYCASRGKNGYDGRDFDCWGQGTLVTVSS
VL: EIVLTQSPATLSLSPGERATLSCKSTKSLLNSGGFSYLDWYQQKPGQAPRLLIYLVSNRFTGIPARFSGSGSGTDFTLTISSLEPEDFAVYYCFQSNYFPFTFGQGTKLEIKR
Work on B1 yielded an EC50 [1] of 1.52 nM and an EC50 [2] of 240 nM.
